Data on 72 molecules can be found in patent publication US20250011363A1, “OPTIMIZED SHORTENED PEPTIDE THAT BINDS TO ACETYLCHOLINE RECEPTOR, AND USE THEREOF” (SKINMED CO., LTD., priority 2021, published 2025).

The target of this assay is acetylcholine receptor. In words: SPR, AchR immobilised on CM5 chip, peptide at 10 uM.

B1: 5mer-868 (peptide)
peptide: KMHFK
B1: the Binding affinity (RU) is 18 RU.

B2: 5mer-1193 (peptide)
peptide: KHWFK
B2 yielded a Binding affinity (RU) of 22 RU.

B3: 5mer-1177 (peptide)
peptide: KIPVR
As for B3, the Binding affinity (RU) was 20 RU.

B4: 5mer-1168 (peptide)
peptide: RHHWR
B4 returned a Binding affinity (RU) of 31 RU.

B5: 5mer-1195 (peptide)
peptide: RHWEK
B5 yielded a Binding affinity (RU) of 19 RU.

B6: 5mer-1176 (peptide)
peptide: KIHFK
As to B6, the Binding affinity (RU) was found to be 25 RU.

B7: 5mer-889 (peptide)
peptide: KTPGR
For B7, the Binding affinity (RU) was 25 RU.

B8: 5mer-867 (peptide)
peptide: KDSWK
B8 returned a Binding affinity (RU) of 14 RU.

B9: 5mer-869 (peptide)
peptide: KKHPK
As for B9, the Binding affinity (RU) amounted to 31 RU.

B10: 5mer-1181 (peptide)
peptide: KKAKR
Molecule B10 returned a Binding affinity (RU) of 22 RU.

B11: 5mer-895 (peptide)
peptide: RFTKK
In turn, B11 displayed a Binding affinity (RU) of 18 RU.

B12: 5mer-1165 (peptide)
peptide: RNMNR
Take B12: the Binding affinity (RU) was 21 RU.

B13: 5mer-882 (peptide)
peptide: REEGR
As to B13, the Binding affinity (RU) was determined as 18 RU.

B14: 5mer-1174 (peptide)
peptide: KYSGK
With B14, the Binding affinity (RU) came to 25 RU.

B15: 5mer-1162 (peptide)
peptide: KIKKK
With B15, the Binding affinity (RU) worked out at 15 RU.

B16: 5mer-1190 (peptide)
peptide: RFSEK
Consider B16, for which the Binding affinity (RU) amounted to 32 RU.

B17: 5mer-890 (peptide)
peptide: KKHFK
On to B17, for which the Binding affinity (RU) was determined as 33 RU.

B18: 5mer-877 (peptide)
peptide: RFSMR
B18 had a Binding affinity (RU) of 17 RU.

B19: 5mer-1170 (peptide)
peptide: KHSEK
B19: the Binding affinity (RU) amounted to 28 RU.

B20: 5mer-863 (peptide)
peptide: REANR
Take B20: the Binding affinity (RU) turned out to be 16 RU.

B21: 5mer-870 (peptide)
peptide: RCKVK
On to B21, for which the Binding affinity (RU) was found to be 25 RU.

B22: 5mer-874 (peptide)
peptide: RIHMR
In turn, B22 returned a Binding affinity (RU) of 27 RU.

B23: 5mer-893 (peptide)
peptide: RIKIK
As for B23, the Binding affinity (RU) was found to be 18 RU.

B24: 5mer-1160 (peptide)
peptide: KETWR
As to B24, the Binding affinity (RU) was 14 RU.

B25: 5mer-881 (peptide)
peptide: RNDAK
Take B25: the Binding affinity (RU) is 31 RU.

B26: 5mer-1166 (peptide)
peptide: KTHEK
In turn, B26 showed a Binding affinity (RU) of 32 RU.

B27: 5mer-862 (peptide)
peptide: KKNAK
As to B27, the Binding affinity (RU) amounted to 19 RU.

B28: 5mer-876 (peptide)
peptide: KETAR
Molecule B28 came in with a Binding affinity (RU) of 16 RU.

B29: 5mer-892 (peptide)
peptide: RKPMR
Molecule B29 registered a Binding affinity (RU) of 29 RU.

B30: 5mer-875 (peptide)
peptide: KHCNK
For the molecule B30, the Binding affinity (RU) was determined as 33 RU.

B31: 5mer-887 (peptide)
peptide: KTPVR
Consider B31, for which the Binding affinity (RU) was determined as 30 RU.

B32: 5mer-886 (peptide)
peptide: RMMFR
B32 registered a Binding affinity (RU) of 21 RU.

B33: 5mer-1188 (peptide)
peptide: KPSGK
With B33, the Binding affinity (RU) stood at 30 RU.

B34: 5mer-1183 (peptide)
peptide: RHAPK
On to B34, for which the Binding affinity (RU) came out at 13 RU.

B35: 5mer-861 (peptide)
peptide: KTKIR
For B35, the Binding affinity (RU) was determined as 20 RU.

B36: 5mer-1169 (peptide)
peptide: KDTPK
B36: the Binding affinity (RU) is 29 RU.

B37: 5mer-1167 (peptide)
peptide: KESWK
B37 displayed a Binding affinity (RU) of 12 RU.

B38: 5mer-1173 (peptide)
peptide: KECKR
Consider B38, for which the Binding affinity (RU) is 30 RU.

B39: 5mer-1184 (peptide)
peptide: RDSMK
Take B39: the Binding affinity (RU) came to 14 RU.

B40: 5mer-866 (peptide)
peptide: RINWR
Take B40: the Binding affinity (RU) is 11 RU.

B41: 5mer-1187 (peptide)
peptide: KHHIR
Regarding B41, the Binding affinity (RU) stood at 27 RU.

B42: 5mer-880 (peptide)
peptide: RCDKK
B42 gave a Binding affinity (RU) of 17 RU.

B43: 5mer-885 (peptide)
peptide: RHCNR
Turning to B43, the Binding affinity (RU) was 19 RU.

B44: 5mer-1189 (peptide)
peptide: RKMDK
B44 showed a Binding affinity (RU) of 11 RU.

B45: 5mer-1161 (peptide)
peptide: KCHDR
B45 came in with a Binding affinity (RU) of 21 RU.

B46: 5mer-879 (peptide)
peptide: KDCMK
As for B46, the Binding affinity (RU) amounted to 13 RU.

B47: 5mer-1171 (peptide)
peptide: RCSWK
As to B47, the Binding affinity (RU) was 21 RU.

B48: 5mer-871 (peptide)
peptide: RHSHR
Regarding B48, the Binding affinity (RU) was determined as 21 RU.

B49: 5mer-1178 (peptide)
peptide: RFDNR
B49 displayed a Binding affinity (RU) of 22 RU.

B50: 5mer-864 (peptide)
peptide: KYHPR
In the case of B50, the Binding affinity (RU) amounted to 25 RU.

B51: 5mer-878 (peptide)
peptide: KHTER
Take B51: the Binding affinity (RU) was 24 RU.

B52: 5mer-1164 (peptide)
peptide: RFPWR
As for B52, the Binding affinity (RU) amounted to 33 RU.

B53: 5mer-891 (peptide)
peptide: RKKMK
In the case of B53, the Binding affinity (RU) came out at 24 RU.

B54: 5mer-1179 (peptide)
peptide: RMNVR
B54 displayed a Binding affinity (RU) of 18 RU.

B55: 5mer-872 (peptide)
peptide: RKKWK
Molecule B55 yielded a Binding affinity (RU) of 29 RU.

B56: 5mer-860 (peptide)
peptide: RCHAK
Turning to B56, the Binding affinity (RU) amounted to 31 RU.

B57: 5mer-1186 (peptide)
peptide: KMWVK
In the case of B57, the Binding affinity (RU) amounted to 12 RU.

B58: 5mer-1163 (peptide)
peptide: KKSKR
As to B58, the Binding affinity (RU) is 12 RU.

B59: 5mer-865 (peptide)
peptide: RMMER
In the case of B59, the Binding affinity (RU) came to 21 RU.

B60: 5mer-1180 (peptide)
peptide: KETAK
The molecule B60 returned a Binding affinity (RU) of 27 RU.

B61: 5mer-1194 (peptide)
peptide: RDNGK
For B61, the Binding affinity (RU) is 18 RU.

B62: 5mer-1191 (peptide)
peptide: RMDWK
For the molecule B62, the Binding affinity (RU) came out at 30 RU.

B63: 5mer-888 (peptide)
peptide: KKCIR
Consider B63, for which the Binding affinity (RU) stood at 31 RU.

B64: 5mer-1175 (peptide)
peptide: RDMIR
Molecule B64 yielded a Binding affinity (RU) of 30 RU.

B65: 5mer-1185 (peptide)
peptide: KPTGR
For the molecule B65, the Binding affinity (RU) was 30 RU.

B66: 5mer-1172 (peptide)
peptide: KIWWR
The molecule B66 gave a Binding affinity (RU) of 25 RU.

B67: 5mer-873 (peptide)
peptide: RYNFR
In the case of B67, the Binding affinity (RU) was determined as 32 RU.

B68: 5mer-883 (peptide)
peptide: KMSAK
Consider B68, for which the Binding affinity (RU) amounted to 16 RU.

B69: 5mer-894 (peptide)
peptide: KMSPR
B69 came in with a Binding affinity (RU) of 18 RU.

B70: 5mer-1192 (peptide)
peptide: RYAKK
As to B70, the Binding affinity (RU) came to 28 RU.

B71: 5mer-884 (peptide)
peptide: KIWEK
Molecule B71 displayed a Binding affinity (RU) of 28 RU.

B72: 5mer-1182 (peptide)
peptide: REKWK
The molecule B72 had a Binding affinity (RU) of 15 RU.
